T1: human W3785-hProl.ECD.His (Human-TNFR2-His) protein (human, UniProt P20333 23-257)
T1 construct: extracellular domain; not shown: His tag
T1 sequence (looked up): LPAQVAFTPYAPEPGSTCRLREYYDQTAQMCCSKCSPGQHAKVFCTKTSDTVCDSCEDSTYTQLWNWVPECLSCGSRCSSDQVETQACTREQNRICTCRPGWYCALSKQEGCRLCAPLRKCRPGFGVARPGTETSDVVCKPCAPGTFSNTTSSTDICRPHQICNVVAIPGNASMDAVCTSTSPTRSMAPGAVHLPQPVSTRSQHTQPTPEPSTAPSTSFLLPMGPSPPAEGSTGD

T2: Recombinant human TNFR2-His Tag protein (Sino, Cat: 10417-H08H) (human, UniProt P20333 23-257)
T2 construct: Bought protein; also called hTNFR2; not shown: His tag
T2 sequence (looked up): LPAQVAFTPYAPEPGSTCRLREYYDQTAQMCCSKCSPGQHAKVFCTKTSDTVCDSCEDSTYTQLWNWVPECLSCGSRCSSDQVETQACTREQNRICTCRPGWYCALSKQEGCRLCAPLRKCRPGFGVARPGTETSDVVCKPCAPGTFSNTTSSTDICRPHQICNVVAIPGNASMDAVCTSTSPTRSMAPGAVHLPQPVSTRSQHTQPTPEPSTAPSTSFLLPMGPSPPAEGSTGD

T3: human TNFR2 (tumor necrosis factor receptor 2), on cells (human, UniProt P20333 23-461)
T3 construct: whole, on cells; also called hTNFR2; CHOK1-hTNFR2
T3 sequence (looked up): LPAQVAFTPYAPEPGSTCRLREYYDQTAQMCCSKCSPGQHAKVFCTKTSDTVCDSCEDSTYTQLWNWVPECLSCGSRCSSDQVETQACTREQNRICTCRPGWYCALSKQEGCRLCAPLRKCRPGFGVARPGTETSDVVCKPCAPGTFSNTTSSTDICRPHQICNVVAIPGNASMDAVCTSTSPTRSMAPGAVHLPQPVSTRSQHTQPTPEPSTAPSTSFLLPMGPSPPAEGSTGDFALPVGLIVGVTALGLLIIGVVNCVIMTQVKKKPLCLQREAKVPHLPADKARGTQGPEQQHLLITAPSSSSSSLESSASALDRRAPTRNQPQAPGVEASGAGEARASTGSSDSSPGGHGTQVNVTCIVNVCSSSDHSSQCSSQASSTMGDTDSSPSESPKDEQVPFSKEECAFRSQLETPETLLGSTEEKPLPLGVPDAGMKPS


Legend:
[1] = target: T1, human W3785-hProl.ECD.His …; experiment: BLI (Octet Red96e), antibody on AHC sensor, Human-TNFR2-His in solution, single concentration
Procedure: After equilibration of the AHC sensor with 0.02% PBST (0.02% Tween 20, pH 7.4, 1*PBS) as buffer for 60 s, the TNFR2 antibody in the sample plate was immobilized for 300 s, and second equilibration was performed for 180 s. 100 nM of human W3785-hProl.ECD.His (Human-TNFR2-His) protein was bound with the TNFR2 antibody for 300 s and then dissociated for 600 s. After dissociation, 10 mM glycine (pH 2.0) was used as regeneration buffer to regenerate for 30 s.

[2] = target: T1, human W3785-hProl.ECD.His …; experiment: BLI (Octet Red96e), antibody on AHC sensor, Human-TNFR2-His in solution, multiple concentrations
[3] = target: T1, human W3785-hProl.ECD.His …; experiment: indirect ELISA on coated Human-TNFR2-His
Procedure: (1) Coating: Human-TNFR2-His was diluted to 0.5 μg/mL with coating solution (1×PBS, pH 7.4), and coated into a 96-well ELISA plate at 100 μL/well at 4° C. overnight. The coating solution was poured off, and the plate was washed with 1×PBST at 300 μL per well, washed with a plate cleaning instrument for 4 times, and patted dry on sheet paper. [0184] (2) Blocking: it was blocked with 3% non-fat dry milk at 300 μL/well, and incubated at 37° C. for 1 h. The blocking solution was poured off, washed by a plate cleaning instrument for 4 times, and patted dry on sheet paper. [0185] (3) Sample dilution: the reference product and the test product were diluted with 3% non-fat dry milk to 10 μg/mL, and this was used as the initial concentration for 3-fold dilution with a total of 11 gradients of dilution, and another one blank well was set up, and only diluent was added. It was incubated at 100 μL/well at 37° C. for 1 h. Liquid in the wells was discarded, washed by a plate cleaning instrument for 4 times, and patted dry on the sheet paper. [0186] (4) Addition of enzyme-labeled secondary antibody: Peroxidase-conjugated AffiniPure F(ab′)2 Fragment Goat Anti-Human IgG was diluted with 3% non-fat dry milk at 1:20,000. It was incubated at 100 μL/well at 37° C. for 1 h. It was washed by a plate cleaning instrument for 6 times and patted dry on sheet paper. […] (5) Color development: TMB color development solution was added at 100 μL/well and wrapped with aluminium foil, and the color was developed at 37° C. without light for 8 min. [0188] (6) Termination of color development: terminal solution 1 M HCl was added to terminate the color development reaction at 100 μL/well. [0189] (7) Reading at 450 nm on the enzyme labeler. [0190]

[4] = target: T2, Recombinant human TNFR2-His Tag protein …; experiment: competition ELISA: captured TNFR2-His, antibody titrated against 1.6 nM biotin-TNF-alpha (competitor)
Procedure: Anti-His antibody (1 μg/mL) was coated at 50 μL/well, incubated at 4° C. overnight and washed 3 times with PBST. 2% BSA was added at 200 μL/well, incubated at room temperature for 1 hour and washed 3 times with PBST. 0.25 μg/mL (containing 2% BSA) of recombinant human TNFR2-His Tag protein (Sino; Cat: 10417-H08H) was added at 50 μL/well, incubated for 1 hour at room temperature and washed 3 times with PBST. Primary antibody (isotype control or candidate antibody) was added at a concentration of 100 nM and diluted 4-fold in 11 gradients with a solution containing 1.6 nM recombinant human TNF-alpha-Biotin protein (Sino; Cat: 10602-HANE-B) and 2% BSA, incubated for 2 hours at room temperature and washed 3 times with PBST. Secondary antibody SA-HRP (1:5000) containing 2% BSA was added at 50 μL/well, incubated for 1 hour at room temperature and washed 3 times with PBST.
After washing, TMB developed the color for 10 min, and the OD450 reading was determined by the enzyme labeler after the display was terminated. Based on the experimental results, it was judged whether the candidate antibodies had ligand blocking activity. As shown in Table 2 and FIG. 2, 2 sequences show better ligand blocking ability than BMK2; 6 sequences show equivalent ligand blocking ability to BMK2.

[5] = target: T3, human TNFR2 (tumor necrosis factor …); experiment: flow cytometry on CHOK1-hTNFR2 cells
Procedure: CHOK1-hTNFR2 cells were plated at 1×10⁵/well (containing 1% BSA). 100 μL of isotype control and candidate antibodies were added at a concentration of 100 nm and 4-fold diluted in 11 gradients (containing 1% BSA). Cells were incubated at 4° C. for 1 hour and then washed twice with excess FACS buffer. Cells were resuspended in 100 μL of FACS buffer, and 100 μL of goat anti-rat IgG Fc-AF647 (1:500) containing 1% BSA was added, incubated at 4° C. without light for 30 minutes and washed twice with excess FACS buffer. Cells were fixed in fixation buffer and subsequently analyzed by flow cytometry. The FACS method screened for candidate antibodies with high specific binding activity to human TNFR2.

[6] = target: T2, Recombinant human TNFR2-His Tag protein …; experiment: SPR (Biacore 8K), antibody captured by anti-rat Fc, 10 nM TNFR2-His as analyte, 1:1 model
Procedure: The CM5 sensor chip was activated at a flow rate of […] for 420 s. The channel was then injected with 30 μg/mL of anti-rat Fc IgG in 10 mM NaAc (pH 4.5) at a flow rate of 10 μL/min. The chip was inactivated with 1 M ethanolamine-hydrochloric acid (GE) for 420 s at a flow rate of 10 μL/min.
Candidate antibodies in running buffer 1×HBS-EP+(10 mM HEPES, 150 mM NaCl, 3 mM EDTA, 0.05% Tween 20, pH 7.4) were captured onto Fc2 with anti-rat Fc IgG at a flow rate of 10 μL/min. The 10 nM recombinant human TNFR2-His Tag protein (Sino; Cat: 10417-H08H) and running buffer were sequentially injected into Fc1-Fc2 at a flow rate of […], bound for 180 s, and then dissociated for 3600 s. 10 mM glycine (pH 1.5) was injected as regeneration buffer after each dissociation.
Result plots for the reference channel Fc1 and the buffer channel were subtracted from the test result plots. The experimental data fit the 1:1 binding model. The molecular weight of 26.6 kDa was used to calculate the molar concentration of recombinant human TNFR2-His Tag protein.

[7] = target: T3, human TNFR2 (tumor necrosis factor …); experiment: cell-based or functional assay

| Kd [1] [nM] | Kd [2] [nM] | koff [2] [s⁻¹] | kon [2] [M⁻¹ s⁻¹] | EC50 [3] [µg/mL] | IC50 [4] [nM] | Inhibition rate (%) [4] [%] | Kd [6] [nM] | koff [6] [s⁻¹] | kon [6] [M⁻¹ s⁻¹] | Binder | EC50 [5] [nM] | Maximum average fluorescence value [5] | IC50(nM), Treg cell count after 72 h with IL2 and TNF-alpha [7] [nM] | Treg cell changes relative to IL-2(%) [7] [%] |
| --- | --- | --- | --- | --- | --- | --- | --- | --- | --- | --- | --- | --- | --- | --- |
| 0.24 | 0.0996 | 8.1e-05 | 813000 | 0.0143 | – | – | – | – | – | Antibody 10-xIgG1K (antibody, V domains shown, Rat-human chimeric antibody, human IgG1 kappa) VH: EVQLVETGGGLVQPGKSLKLTCATSGFTFSNAWMGWVRQSPEKQLEWVAQIKDKSNNYPTYYAESVKGRFTISRDDSESSVYLQMNSLKEEDTAIYYCTGYGDFFDYWGQGVVVTVSS VL: DIQMTQSPASLSASLGETVTIECRASEDIYNGLAWYQQKPGNSPRLLIFNANSLHTGVPSRFSGSGSGTQYSLKINSLQSEDVASYFCQQYYDHPLTFGSGIKLEIKR | – | – | – | – |
| – | – | – | – | – | > 100 | 12.2 | 0.15 | 7.4e-05 | 492000 | Antibody 10 (antibody, V domains shown, Rat monoclonal antibody from a hybridoma) VH: EVQLVETGGGLVQPGKSLKLTCATSGFTFSNAWMGWVRQSPEKQLEWVAQIKDKSNNYPTYYAESVKGRFTISRDDSESSVYLQMNSLKEEDTAIYYCTGYGDFFDYWGQGVVVTVSS VL: DIQMTQSPASLSASLGETVTIECRASEDIYNGLAWYQQKPGNSPRLLIFNANSLHTGVPSRFSGSGSGTQYSLKINSLQSEDVASYFCQQYYDHPLTFGSGIKLEIK | 0.077 | 907 | – | – |
| – | – | – | – | – | 0.584 | 96 | < 0.00758 | < 1e-05 | 1.32e+06 | Antibody 04 (antibody, V domains shown, Rat monoclonal antibody from a hybridoma) VH: EVHLQQSGPEVGRPGSSVKISCKASGYTFTDYIIHWVKQSPGQGLEWMGWIDPDYGNTDYADKFKKKATLTADASSNTAFIHLSRLTSEDTATYFCARDDGSPLVMDAWGQGTSVTVSS VL: NIQLTQSPSLLSASVGDRVTLSCNGSQNIDNYLAWFQQKLGEAPKLLIYSTYSLQTGIPSRFSGSRSGTDYTLTISSLQPEDVATYFCFQYNNGYMFGAGTKLELK | 0.025 | 1320 | 0.88 | 100 |
| 0.148 | 0.0606 | 6.65e-05 | 1.1e+06 | 0.00581 | – | – | – | – | – | Antibody 04-xIgG1K (antibody, V domains shown, Rat-human chimeric antibody, human IgG1 kappa) VH: EVHLQQSGPEVGRPGSSVKISCKASGYTFTDYIIHWVKQSPGQGLEWMGWIDPDYGNTDYADKFKKKATLTADASSNTAFIHLSRLTSEDTATYFCARDDGSPLVMDAWGQGTSVTVSS VL: NIQLTQSPSLLSASVGDRVTLSCNGSQNIDNYLAWFQQKLGEAPKLLIYSTYSLQTGIPSRFSGSRSGTDYTLTISSLQPEDVATYFCFQYNNGYMFGAGTKLELKR | – | – | – | – |
| 0.396 | 0.317 | 0.000171 | 542000 | – | – | – | – | – | – | Antibody 11-xIgG1K (antibody, V domains shown, Rat-human chimeric antibody, human IgG1 kappa) VH: EVQLQQSGPELRRPGSSVKLSCKASGYSITDYLLHWVKHSPEHGLEWIGWIDPEDGKTKYGQKFQSKATLTADTSSNAAYMQLSSLTSEDSATYFCAANSGTGTMDAWGQGASVTVSS VL: DIVMTQSPTSMSISVGDRVTLNCKASQNVGSNVDWYQQKTGQSPKVLLYKASIRYTGVPDRFTGSGSGTEFTFTITNMQAEDLAVYFCMQSKSYPITFGSGTKLEIKR | – | – | – | – |
| – | – | – | – | – | > 100 | 22.4 | 1.4 | 0.000169 | 120000 | Antibody 11 (antibody, V domains shown, Rat monoclonal antibody from a hybridoma) VH: EVQLQQSGPELRRPGSSVKLSCKASGYSITDYLLHWVKHSPEHGLEWIGWIDPEDGKTKYGQKFQSKATLTADTSSNAAYMQLSSLTSEDSATYFCAANSGTGTMDAWGQGASVTVSS VL: DIVMTQSPTSMSISVGDRVTLNCKASQNVGSNVDWYQQKTGQSPKVLLYKASIRYTGVPDRFTGSGSGTEFTFTITNMQAEDLAVYFCMQSKSYPITFGSGTKLEIK | 0.493 | 1010 | – | – |
